According to article PMC12475274, “Harnessing indole scaffolds to identify small-molecule IRE1α inhibitors modulating XBP1 mRNA splicing” (Nature Communications, 2025):

Target: the molecule itself
Experiment: crystal structure; p-IRE1α (15 mg/mL) co-crystallised with 1 mM IA107; hanging drop, 0.05 M bicine pH 9.0, 36% PEG300, 0.12 M NaCl, 20 °C; four copies in the asymmetric unit

B1: phosphorylated human IRE1α kinase and RNase domain (residues 547–977) (domain or fragment, UniProt O75460 547-977, looked up)
chain: GSSPSLEQDDGDEETSVVIVGKISFCPKDVLGHGAEGTIVYRGMFDNRDVAVKRILPECFSFADREVQLLRESDEHPNVIRYFCTEKDRQFQYIAIELCAATLQEYVEQKDFAHLGLEPITLLQQTTSGLAHLHSLNIVHRDLKPHNILISMPNAHGKIKAMISDFGLCKKLAVGRHSFSRRSGVPGTEGWIAPEMLSEDCKENPTYTVDIFSAGCVFYYVISEGSHPFGKSLQRQANILLGACSLDCLHPEKHEDVIARELIEKMIAMDPQKRPSAKHVLKHPFFWSLEKQLQFFQDVSDRIEKESLDGPIVKQLERGGRAVVKMDWRENITVPLQTDLRKFRTYKGGSVRDLLRAMRNKKHHYRELPAEVRETLGSLPDDFVCYFTSRFPHLLAHTYRAMELCSHERLFQPYYFHEPPEPQPPVTPDAL
modifications: phosphorylated (fully phosphorylated fraction, verified by LC-MS); the phosphorylated residues are not given
notes: Human IRE1α (inositol-requiring enzyme 1 alpha), kinase and RNase domain, residues 547-977; Fully phosphorylated fraction separated from the unphosphorylated protein on the anion exchange column; also called p-IRE1α; phosphorylated IRE1α
binding result: binds
